Experimental data as given in patent US8846873B2, “Antibodies directed to GPNMB and uses thereof” (Celldex Therapeutics, Inc., priority 2004, dated 2014).
“Also recorded” adds a separate entry of the source.

Tests used:
[1] = test system: SK-Mel-2 cells; experiment: ADCC assay with human PBMC (DELFIA EuTDA cytotoxicity); format: cell-based; settings: human PBMC 30 to 100 fold; 2, 5, 10 μg/200 μl; listed as CR011 IgG2
Method: We next examined whether the CR0111gG1 mAb could induce ADCC in SK-MEL-2 cells in culture in the presence of human PBMC. Human PBMC were isolated from whole blood using a Ficoll-Plaque. Briefly, in a 50 mL tube, 15 mL of PBS was added to 20 mL of whole blood which was underlayed with 10 mL Ficoll-Plaque and the tube was centrifuged at 2000 RPM. Mononuclear cells were collected from the interface and washed 3 times with PBS. The ADCC assay was carried out in a 96 well plate using a fluorescence assay for cytolysis from Perkin-Elmer (DELFIA EuTDA Cytotoxic assay). The procedure is based on loading target cells with a fluorescence enhancing ligand (BATDA, bis (acetoxymethyl) terpyridine—dicarboxylate). The hydrophic ligand penetrates the membrane quickly. Within the cell the esterbonds are hydrolyzed to form a hydrophilic ligand (TDA, terpyridine—dicarboxylic acid) which can no longer pass through the membrane. After cytolysis the ligand is released and introduced to the Europium solution. The europium and the ligand form a highly fluorescent and stable chelate (EuTDA). Fluorescence intensity are recorded using excitation and emission wavelengths as λex=340 nm and λem=613 nm, respectively.

[2] = test system: SNB-78; experiment: Flow cytometry (FACS) of CR011 surface staining; format: binding, human
Method: Flow Cytometry: Quantitative analysis of CG56972 expression on the surface of cell lines was determined by flow cytometry (FACS). […] Cells were fixed in 1% paraformaldehyde/PBS and examined on a Becton Dickinson FACSCalibur flow cytometer. Data analysis was performed with Becton Dickinson Cell Quest software version 3.3 and the geometric mean fluorescence intensity ratio (GMR) was determined for each cell type.

[3] = test system: TK10; experiment: Anti GPNMB antibody mediated indirect cell killing (saporin secondary antibody-toxin conjugate, colony count); format: cell-based; settings: primary antibody 50 ng/mL plus goat anti-human IgG-saporin 100 ng/well
Method: UACC-62, a GPNMB antigen expressing cell line, and TK10, a non-expressing cell line were plated onto flat bottom 96-well tissue culture plates (Becton Dickinson, Franklin Lakes, N.J., USA) at a density of 3000 cells per well. Once the cells reached ˜25% confluency, 100 ng/well of secondary antibody-toxin conjugate (goat anti-human IgG-saporin; Advanced Targeting Systems, San Diego, USA, HUM-ZAP; cat. # IT-22) was added. Anti-GPNMB MAbs 2.10.2, 2.22.1, 1.15.1 or isotype control mAb (pK16.3) were added to each well at a final concentration of 10 or 50 ng/mL. An anti-EGFR monoclonal antibody (MS-269-PABX, NeoMarkers, Fremont, Calif., USA) was used as a positive primary antibody control. Chemotherapy reagent 5-FU at 600 uM was used as a positive reagent control. On day 5, the cells were trypsinized, transferred to 6-well tissue culture plates and incubated at 37° C. Plates were examined daily and between 8-10 days, all plates were Giemsa stained and colonies were counted.

[4] = target: T1, GPNMB (Homo sapiens, UniProt Q14956); experiment: Binning of antibodies (Luminex competitive binding); settings: three bins of six anti-GPNMB antibodies
T1 construct: made in house; host or cells: HEK 293
T1 sequence (Q14956 23-492): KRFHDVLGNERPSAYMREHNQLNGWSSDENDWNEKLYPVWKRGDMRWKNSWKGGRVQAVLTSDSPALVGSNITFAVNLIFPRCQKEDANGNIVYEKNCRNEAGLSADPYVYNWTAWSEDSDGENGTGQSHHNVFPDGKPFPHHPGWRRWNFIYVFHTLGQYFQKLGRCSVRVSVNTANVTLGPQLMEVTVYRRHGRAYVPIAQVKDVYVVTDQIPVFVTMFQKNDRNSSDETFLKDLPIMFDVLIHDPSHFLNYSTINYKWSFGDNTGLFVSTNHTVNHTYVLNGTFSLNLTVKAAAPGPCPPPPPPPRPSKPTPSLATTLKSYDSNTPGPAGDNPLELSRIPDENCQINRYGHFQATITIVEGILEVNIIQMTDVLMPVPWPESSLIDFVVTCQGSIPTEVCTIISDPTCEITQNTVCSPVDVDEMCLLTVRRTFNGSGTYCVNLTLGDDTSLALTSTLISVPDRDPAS
Method: Certain antibodies, described herein were binned in accordance with the protocol described in U.S. Patent Application Publication No. 20030157730. MxhIgG conjugated beads are prepared for coupling to primary antibody. The volume of supernatant needed is calculated using the following formula: (n+10)×50 μL (where n=total number of samples on plate). Where the concentration is known, 0.5 μg/mL is used. Bead stock is gently vortexed, then diluted in supernatant to a concentration of 2500 of each bead per well or 0.5×10^5/mL and incubated on a shaker in the dark at RT overnight, or 2 hours if at a known concentration of […]. Following aspiration, 50 μL of each bead is added to each well of filter plate, then washed once by adding 100 μL/well wash buffer and aspirating. Antigen and controls are added to filter plate 50 μL/well then covered and allowed to incubate in the dark for 1 hour on shaker. Following a wash step, a secondary unknown antibody is added at 50 μL/well using the same dilution (or concentration if known) as is used for the primary antibody. The plates are then incubated in the dark for 2 hours at RT on shaker followed by a wash step. Next, 50 μL/well biotinylated mxhIgG diluted 1:500 is added and allowed to incubate in the dark for 1 hour on shaker at RT. […]

B1: Mab1.15.1 (protein, listed as Homo sapiens)
chain: QVQLQESGPGLVKPSQTLSLTCTVSGGSISSFNYYWSWIRHHPGKGLEWIGYIYYSGSTYSNPSLKSRVTISVDTSKNQFSLTLSSVTAADTAVYYCARGYNWNYFDYWGQGTLVTVSSA
ADCC / cytolysis of SK-MEL-2 cells [1]: do not cause ADCC; also recorded: did not show any cytolysis | surface staining above isotype control mAb background [2]: at least 1.5 fold | cell death in GPNMB negative TK10 cells [3]: less than 24% | Bin [4]: Bin 2
